Earlier results in patent US20210265014A1, “METHOD AND ELECTRONIC SYSTEM FOR PREDICTING AT LEAST ONE FITNESS VALUE OF A PROTEIN VIA AN EXTENDED NUMERICAL SEQUENCE, RELATED COMPUTER PROGRAM PRODUCT” (PEACCEL, priority 2018, published 2021).

Molecular target: T1, Glucagon like peptide-2 (GLP-2) receptor (Rattus norvegicus, UniProt Q9Z0W0)
T1 sequence (Q9Z0W0 1-550): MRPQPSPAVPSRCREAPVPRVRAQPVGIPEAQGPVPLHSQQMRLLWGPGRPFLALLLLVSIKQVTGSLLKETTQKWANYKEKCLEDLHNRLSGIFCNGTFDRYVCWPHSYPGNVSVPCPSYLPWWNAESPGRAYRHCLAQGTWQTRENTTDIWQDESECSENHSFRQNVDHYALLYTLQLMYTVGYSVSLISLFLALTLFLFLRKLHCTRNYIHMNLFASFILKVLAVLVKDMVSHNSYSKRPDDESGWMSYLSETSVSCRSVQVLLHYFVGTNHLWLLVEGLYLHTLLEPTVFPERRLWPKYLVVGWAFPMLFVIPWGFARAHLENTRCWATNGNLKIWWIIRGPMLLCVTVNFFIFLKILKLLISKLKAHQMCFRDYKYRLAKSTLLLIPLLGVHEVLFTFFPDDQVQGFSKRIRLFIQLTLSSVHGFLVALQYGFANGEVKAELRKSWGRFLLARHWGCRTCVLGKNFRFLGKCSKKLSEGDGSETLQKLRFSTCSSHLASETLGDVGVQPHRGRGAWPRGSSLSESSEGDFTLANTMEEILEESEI
Details: receptor activation, fold increase over basal cAMP production

Substance	fold-increase in cAMP [fold]
A2G: variant of Glucagon like peptide-2 (GLP-2) [Chimera A2G]	10.00
D3A: alanine variant of Glucagon like peptide-2 (GLP-2) (HAAGSFSDEMNTILDNLAARDFINWLIQTKITD; Glucagon-like peptide 2; UniProt P01275 146-178, looked up, variant D3A) [Chimera D3A]	1.02
D8A: alanine variant of Glucagon like peptide-2 (GLP-2) (HADGSFSAEMNTILDNLAARDFINWLIQTKITD; Glucagon-like peptide 2; UniProt P01275 146-178, looked up, variant D8A) [Chimera D8A]	7.53
D15A: alanine variant of Glucagon like peptide-2 (GLP-2) (HADGSFSDEMNTILANLAARDFINWLIQTKITD; Glucagon-like peptide 2; UniProt P01275 146-178, looked up, variant D15A) [Chimera D15A]	4.54
D21A: alanine variant of Glucagon like peptide-2 (GLP-2) (HADGSFSDEMNTILDNLAARAFINWLIQTKITD; Glucagon-like peptide 2; UniProt P01275 146-178, looked up, variant D21A) [Chimera D21A]	4.42
D33A: alanine variant of Glucagon like peptide-2 (GLP-2) (HADGSFSDEMNTILDNLAARDFINWLIQTKITA; Glucagon-like peptide 2; UniProt P01275 146-178, looked up, variant D33A) [Chimera D33A]	3.41
E9A: alanine variant of Glucagon like peptide-2 (GLP-2) (HADGSFSDAMNTILDNLAARDFINWLIQTKITD; Glucagon-like peptide 2; UniProt P01275 146-178, looked up, variant E9A) [Chimera E9A]	3.76
F6A: alanine variant of Glucagon like peptide-2 (GLP-2) (HADGSASDEMNTILDNLAARDFINWLIQTKITD; Glucagon-like peptide 2; UniProt P01275 146-178, looked up, variant F6A) [Chimera F6A]	1.67
F22A: alanine variant of Glucagon like peptide-2 (GLP-2) (HADGSFSDEMNTILDNLAARDAINWLIQTKITD; Glucagon-like peptide 2; UniProt P01275 146-178, looked up, variant F22A) [Chimera F22A]	1.61
G4A: alanine variant of Glucagon like peptide-2 (GLP-2) (HADASFSDEMNTILDNLAARDFINWLIQTKITD; Glucagon-like peptide 2; UniProt P01275 146-178, looked up, variant G4A) [Chimera G4A]	2.87
H1A: alanine variant of Glucagon like peptide-2 (GLP-2) (AADGSFSDEMNTILDNLAARDFINWLIQTKITD; Glucagon-like peptide 2; UniProt P01275 146-178, looked up, variant H1A) [Chimera H1A]	0.78
I13A: alanine variant of Glucagon like peptide-2 (GLP-2) (HADGSFSDEMNTALDNLAARDFINWLIQTKITD; Glucagon-like peptide 2; UniProt P01275 146-178, looked up, variant I13A) [Chimera I13A]	2.45
I23A: alanine variant of Glucagon like peptide-2 (GLP-2) (HADGSFSDEMNTILDNLAARDFANWLIQTKITD; Glucagon-like peptide 2; UniProt P01275 146-178, looked up, variant I23A) [Chimera I23A]	2.57
I27A: alanine variant of Glucagon like peptide-2 (GLP-2) (HADGSFSDEMNTILDNLAARDFINWLAQTKITD; Glucagon-like peptide 2; UniProt P01275 146-178, looked up, variant I27A) [Chimera I27A]	5.02
I31A: alanine variant of Glucagon like peptide-2 (GLP-2) (HADGSFSDEMNTILDNLAARDFINWLIQTKATD; Glucagon-like peptide 2; UniProt P01275 146-178, looked up, variant I31A) [Chimera I31A]	4.42
K30A: alanine variant of Glucagon like peptide-2 (GLP-2) (HADGSFSDEMNTILDNLAARDFINWLIQTAITD; Glucagon-like peptide 2; UniProt P01275 146-178, looked up, variant K30A) [Chimera K30A]	0.84
L14A: alanine variant of Glucagon like peptide-2 (GLP-2) (HADGSFSDEMNTIADNLAARDFINWLIQTKITD; Glucagon-like peptide 2; UniProt P01275 146-178, looked up, variant L14A) [Chimera L14A]	2.03
L17A: alanine variant of Glucagon like peptide-2 (GLP-2) (HADGSFSDEMNTILDNAAARDFINWLIQTKITD; Glucagon-like peptide 2; UniProt P01275 146-178, looked up, variant L17A) [Chimera L17A]	1.02
L26A: alanine variant of Glucagon like peptide-2 (GLP-2) (HADGSFSDEMNTILDNLAARDFINWAIQTKITD; Glucagon-like peptide 2; UniProt P01275 146-178, looked up, variant L26A) [Chimera L26A]	2.33
M10A: alanine variant of Glucagon like peptide-2 (GLP-2) (HADGSFSDEANTILDNLAARDFINWLIQTKITD; Glucagon-like peptide 2; UniProt P01275 146-178, looked up, variant M10A) [Chimera M10A]	0.78

Further lines, results first:

fold-increase in cAMP [fold]	Substance
7.65	N11A: alanine variant of Glucagon like peptide-2 (GLP-2) (HADGSFSDEMATILDNLAARDFINWLIQTKITD; Glucagon-like peptide 2; UniProt P01275 146-178, looked up, variant N11A) [Chimera N11A]
5.92	N16A: alanine variant of Glucagon like peptide-2 (GLP-2) (HADGSFSDEMNTILDALAARDFINWLIQTKITD; Glucagon-like peptide 2; UniProt P01275 146-178, looked up, variant N16A) [Chimera N16A]
10.00	N24A: alanine variant of Glucagon like peptide-2 (GLP-2) (HADGSFSDEMNTILDNLAARDFIAWLIQTKITD; Glucagon-like peptide 2; UniProt P01275 146-178, looked up, variant N24A) [Chimera N24A]
5.80	Q28A: alanine variant of Glucagon like peptide-2 (GLP-2) (HADGSFSDEMNTILDNLAARDFINWLIATKITD; Glucagon-like peptide 2; UniProt P01275 146-178, looked up, variant Q28A) [Chimera Q28A]
3.94	R20A: alanine variant of Glucagon like peptide-2 (GLP-2) (HADGSFSDEMNTILDNLAAADFINWLIQTKITD; Glucagon-like peptide 2; UniProt P01275 146-178, looked up, variant R20A) [Chimera R20A]
4.00	S5A: alanine variant of Glucagon like peptide-2 (GLP-2) (HADGAFSDEMNTILDNLAARDFINWLIQTKITD; Glucagon-like peptide 2; UniProt P01275 146-178, looked up, variant S5A) [Chimera S5A]
7.59	S7A: alanine variant of Glucagon like peptide-2 (GLP-2) (HADGSFADEMNTILDNLAARDFINWLIQTKITD; Glucagon-like peptide 2; UniProt P01275 146-178, looked up, variant S7A) [Chimera S7A]
3.11	T12A: alanine variant of Glucagon like peptide-2 (GLP-2) (HADGSFSDEMNAILDNLAARDFINWLIQTKITD; Glucagon-like peptide 2; UniProt P01275 146-178, looked up, variant T12A) [Chimera T12A]
4.78	T29A: alanine variant of Glucagon like peptide-2 (GLP-2) (HADGSFSDEMNTILDNLAARDFINWLIQAKITD; Glucagon-like peptide 2; UniProt P01275 146-178, looked up, variant T29A) [Chimera T29A]
0.84	T32A: alanine variant of Glucagon like peptide-2 (GLP-2) (HADGSFSDEMNTILDNLAARDFINWLIQTKIAD; Glucagon-like peptide 2; UniProt P01275 146-178, looked up, variant T32A) [Chimera T32A]
1.37	W25A: alanine variant of Glucagon like peptide-2 (GLP-2) (HADGSFSDEMNTILDNLAARDFINALIQTKITD; Glucagon-like peptide 2; UniProt P01275 146-178, looked up, variant W25A) [Chimera W25A]
